Data on 2 molecules can be found in patent US20260232732A1 (FUNDACI INSTITUT DE RECERCA CONTRA LA LEUC MIA JOSEP …, published 2026).

Where no end group is shown, it is not given here. The star is where a group is joined. Biotin = O=C1N[C@H]2[C@H](CS[C@H]2CCCCC(=O)*)N1

Experiment [1] deals with T1, biotin-peptide SSMEDYVNFN (human).
T1 peptide: Biotin-SSMEDYVNFN
The experiment in a line: ELISA biotin-peptide; scFv 1.25 ug/mL; repI. The procedure: (§1) The peptides were synthesized naked or with a N-terminal Biotin modification with a purity of >98%. All four scFvs were verified by ELISA that can be detected with anti-His antibodies. ELISA was performed for scFv-peptide binding validation. Briefly, naked peptides were coated (50 μg/mL) in 0.58M carbonate-bicarbonate buffer pH9.5, 100 μL/well, 4° C. O/N. Then after blocking (3% BSA-PBS, 300 μL/well 37° C. 1.5 h) and washing (PBS+Tween-20 0.05% v/v (0.05% PBST), wells were incubated with each purified scFv antibody at concentration of 1 μg/mL in PBS at 37° C. 1 h. After washing (0.05% PBST), wells were incubated with secondary antibodies (goat anti-His IgG-HRP) in PBS, 37° C., 30 min. After washing, and incubation with TMB substrate, reactions were stopped with 2M HCl and reading was quantified at OD450.
(§2) ELISA with biotin-conjugated peptides (5 μg/mL) was performed very similar to described above with minor modifications.
(§3) A full curve ELISA was performed for each positive scFv/biotin-peptide pair in order to confirm previous results. Tables 15-17 show ELISA results of the dose-dependent full curve for each positive peptide with scFv “CCR9_HUM”, “Comp-2” and “Comp-3”, respectively.
Background: In an ELISA, binding on a coated surface is turned into a signal by an enzyme label.

Experiment [2] has as its target T2, biotin-peptide MEDYVNFNFT (human).
T2 peptide: Biotin-MEDYVNFNFT
The experiment can be described thus: ELISA biotin-peptide; scFv 1.25 ug/mL; repI. The procedure: as §1, §2, §3

The target of experiment [3] is T3, biotin-peptide SMEDYVNFNF (human).
T3 peptide: Biotin-SMEDYVNFNF
The experiment in a line: ELISA biotin-peptide; scFv 1.25 ug/mL; repI. The procedure:
as §1, §2, §3

For experiment [4], the target named is T4, biotin-peptide TSSMEDYVNF (human).
T4 peptide: Biotin-TSSMEDYVNF
The experiment in a line: ELISA biotin-peptide; scFv 1.25 ug/mL; repI. The procedure: as §1, §2, §3

For experiment [5], the target named is T1, biotin-peptide SSMEDYVNFN
The experiment can be described thus: ELISA biotin-peptide; scFv 2.5 ug/mL; repII. As for the experimental part: as §1, §2, §3

The target of experiment [6] is T2, biotin-peptide MEDYVNFNFT
The experiment can be described thus: ELISA biotin-peptide; scFv 2.5 ug/mL; repII. The procedure: as §1, §2, §3

For experiment [7], the target named is T3, biotin-peptide SMEDYVNFNF
The experiment can be described thus: ELISA biotin-peptide; scFv 2.5 ug/mL; repII. As for the experimental part: as §1, §2, §3

Experiment [8] concerns the target T4, biotin-peptide TSSMEDYVNF
The experiment in a line: ELISA biotin-peptide; scFv 2.5 ug/mL; repII. The procedure:
as §1, §2, §3

The target of experiment [9] is T5, Peptide 4, non-conjugated (SMEDYVNFNF-C) (human).
T5 construct: With the extra C-terminal Cys
T5 peptide: SMEDYVNFNFC
The experiment can be described thus: ELISA; Ab 0.25 ug/mL; repII. The procedure:
(§4) In brief, plates with each non-conjugated peptide (50 μg/mL) or BSA-conjugated peptide (5 μg/mL) were coated in 0.58M carbonate-bicarbonate buffer pH9.5, 100 μL/well, at 4° C. […] After washing, wells were incubated with the 3, 3′,5,5′-Tetramethylbenzidine (TMB) HRP substrate and reactions were stopped with 2M HCl and OD450 was recorded.

Experiment [10] concerns the target T6, Peptide 4-BSA (SMEDYVNFNF-C conjugated to BSA) (human).
T6 peptide: SMEDYVNFNFC(BSA)
The experiment can be described thus: ELISA; Ab 0.25 ug/mL; repII. The procedure:
as §4

For experiment [11], the target named is T7, Peptide 1, non-conjugated (MADDYGSEST-C) (human).
T7 construct: With the extra C-terminal Cys
T7 peptide: MADDYGSESTC
The experiment can be described thus: ELISA; Ab 0.25 ug/mL; repII. As for the experimental part:
as §4

Experiment [12] addresses T8, Peptide 3-BSA (SSMEDYVNFN-C conjugated to BSA) (human).
T8 peptide: SSMEDYVNFNC(BSA)
The experiment in a line: ELISA; Ab 0.25 ug/mL; repII. As for the experimental part:
as §4

The target of experiment [13] is T9, Peptide 3, non-conjugated (SSMEDYVNFN-C) (human).
T9 construct: With the extra C-terminal Cys
T9 peptide: SSMEDYVNFNC
The experiment in a line: ELISA; Ab 0.25 ug/mL; repII. The procedure:
as §4

For experiment [14], the target named is T10, BSA (negative control coating) (bovine, UniProt P02769 25-607).
T10 construct: also called Negative control BSA
T10 sequence (P02769 25-607 limits assumed): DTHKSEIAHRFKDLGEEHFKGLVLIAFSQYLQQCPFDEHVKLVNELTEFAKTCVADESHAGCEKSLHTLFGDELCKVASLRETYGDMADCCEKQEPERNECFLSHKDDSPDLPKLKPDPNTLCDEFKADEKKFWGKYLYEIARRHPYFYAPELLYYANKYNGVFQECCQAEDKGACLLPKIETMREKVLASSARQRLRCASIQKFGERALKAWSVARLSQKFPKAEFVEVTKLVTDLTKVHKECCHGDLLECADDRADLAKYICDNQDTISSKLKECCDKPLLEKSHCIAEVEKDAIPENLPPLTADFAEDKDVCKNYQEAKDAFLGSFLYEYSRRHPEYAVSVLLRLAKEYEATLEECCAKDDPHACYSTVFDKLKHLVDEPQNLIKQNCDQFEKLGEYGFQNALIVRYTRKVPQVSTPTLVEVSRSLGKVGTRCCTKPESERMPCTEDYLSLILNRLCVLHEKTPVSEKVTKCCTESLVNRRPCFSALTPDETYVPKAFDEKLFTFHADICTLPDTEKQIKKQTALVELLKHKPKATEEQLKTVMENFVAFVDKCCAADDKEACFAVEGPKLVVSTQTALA
The experiment in a line: ELISA; Ab 0.25 ug/mL; repII. As for the experimental part:
as §4

In experiment [15] the target is T11, Peptide 1-BSA (MADDYGSEST-C conjugated to BSA) (human).
T11 peptide: MADDYGSESTC(BSA)
The experiment can be described thus: ELISA; Ab 0.25 ug/mL; repII. As for the experimental part:
as §4

Experiment [16] addresses T12, Peptide 2-BSA (GSESTSSMED-C conjugated to BSA) (human).
T12 peptide: GSESTSSMEDC(BSA)
The experiment in a line: ELISA; Ab 0.25 ug/mL; repII. As for the experimental part: as §4

Experiment [17] deals with T13, Peptide 2, non-conjugated (GSESTSSMED-C) (human).
T13 construct: With the extra C-terminal Cys
T13 peptide: GSESTSSMEDC
The experiment can be described thus: ELISA; Ab 0.25 ug/mL; repII. The procedure: as §4

In experiment [18] the target is T14, antigen peptide-BSA (immunisation peptide #1 MADDYGSESTSSMEDYVNFNF-C conjugated to BSA) (human, extra C-terminal Cys conjugated to BSA).
T14 construct: also called Positive control antigen peptide-BSA; MADDY peptide
T14 peptide: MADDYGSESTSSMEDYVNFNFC
The experiment in a line: ELISA; Ab 0.25 ug/mL; repII. As for the experimental part: as §4

For experiment [19], the target named is T5, Peptide 4, non-conjugated (SMEDYVNFNF-C). The experiment can be described thus: ELISA; Ab 1 ug/mL; repI. The procedure: as §4
Experiment [20] concerns the target T7, Peptide 1, non-conjugated (MADDYGSEST-C). The experiment can be described thus: ELISA; Ab 1 ug/mL; repI. The procedure:
as §4

Experiment [21] addresses T8, Peptide 3-BSA (SSMEDYVNFN-C conjugated …). The experiment in a line: ELISA; Ab 1 ug/mL; repI. As for the experimental part: as §4
Experiment [22] deals with T14, antigen peptide-BSA (immunisation …). The experiment in a line: ELISA; Ab 1 ug/mL; repI. The procedure: as §4
The target in experiment [23] is T10, BSA (negative control coating). The experiment in a line: ELISA; Ab 0.125 ug/mL; repI. As for the experimental part: as §4
The target in experiment [24] is T12, Peptide 2-BSA (GSESTSSMED-C conjugated …). The experiment can be described thus: ELISA; Ab 0.125 ug/mL; repI. As for the experimental part: as §4
Experiment [25] deals with T13, Peptide 2, non-conjugated (GSESTSSMED-C). The experiment can be described thus: ELISA; Ab 0.125 ug/mL; repI. As for the experimental part:
as §4

B1: CCR9_HUM2 scFv (humanized anti-CCR9 scFv, SEQ ID NO: 17 with C-terminal 6xHis tag) (scFv)
scFv: QVQLVQSGAEVKKPGASVKVSCTASGYSFTDYIIYWVKQAHGQSLEWMGYIDPNNYNTRYSQKFQGKVTITVDKSSTSAYMELNSLTSDDTAVYYCARDVYWGQGTTVTVSSGGGGSGGGGSGGGGSGGGGSDVVMTQTPLSLSVTPGQPASISCRSSQSLVHSNGKTYLQWYLQKPGQSPKLLIYKVSNRFSGVPDRFSGSGSGTDFTLKISRVEAEDVGVYFCAQSTHVWTFGGGTKVEIKRAHHHHHH
With B1, the OD450 in [1] was found to be 1.74 OD; in experiment [2], 1.54 OD; in experiment [3], 1.73 OD; in [4] it was 1.18 OD; in [5], 1.78 OD; in experiment [6], 1.64 OD. Also, the values for the OD450 in experiment [7] and in experiment [8] were 1.77 OD and 1.4 OD, respectively.

B2: anti-CCR9 antibody clone 115 (murine, from hybridoma #115) (antibody, V domains shown)
VH: QVQLKQSGPELVKPGTSVRVSCTASGYSFTDYIIYWVKQSHGRSLEWIGYIDPNNYNTRYSQKFKGKATLTVDKSSTSAFMHLNSLTSDDSAVYYCARDVYWGQGTTLTVSS
VL: DVVMTQTPLSLTVSLGDQASISCRSSQSLVHSNGKTYLQWYLQKPGQSPKLLIYKVSNRFSGVPDRFSGSGSGTDFTLKISRVEAEDLGVYFCAQSTHVWTFGGGTKLEIKR
notes: Mouse IgG1
In the case of B2, the OD450 turned out to be 2.24 OD in experiment [9]; 2.53 OD in experiment [10]; 0.02 OD in experiment [11]; 2.05 OD in experiment [12]; 1.8 OD in experiment [13]; 0.02 OD in experiment [14]. The OD450 in experiment [15] was 0.02 OD; in [16], 0.02 OD; in experiment [17], 0.01 OD; in experiment [18] it was 2.42 OD; in experiment [19], 2.49 OD; in [20], 0.02 OD. The OD450 in [21] was found to be 2.17 OD; in experiment [22], 2.58 OD; in experiment [23], 0.01 OD; in experiment [24], 0.01 OD; in [25], 0.01 OD.
